{"source": "patent US20240383996A1", "key": {"[1]": {"biological_target": "Human CTLA4 expressed on transfected CHO or Jurkat cells (human) (UniProt P16410)", "sequence (P16410 36-222 limits assumed)": "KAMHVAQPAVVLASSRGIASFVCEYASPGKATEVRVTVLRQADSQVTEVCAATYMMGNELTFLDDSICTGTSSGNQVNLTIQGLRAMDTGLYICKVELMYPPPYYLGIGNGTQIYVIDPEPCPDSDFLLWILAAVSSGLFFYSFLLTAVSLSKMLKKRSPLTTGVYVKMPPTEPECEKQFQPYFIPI", "assay": "flow cytometry, whole cell binding to human CTLA4-expressing Jurkat cells, Geo MFI"}, "[2]": {"biological_target": "Human OX40 expressed on transfected Jurkat or CHO cells (human) (UniProt P43489)", "sequence (P43489 29-277 limits assumed)": "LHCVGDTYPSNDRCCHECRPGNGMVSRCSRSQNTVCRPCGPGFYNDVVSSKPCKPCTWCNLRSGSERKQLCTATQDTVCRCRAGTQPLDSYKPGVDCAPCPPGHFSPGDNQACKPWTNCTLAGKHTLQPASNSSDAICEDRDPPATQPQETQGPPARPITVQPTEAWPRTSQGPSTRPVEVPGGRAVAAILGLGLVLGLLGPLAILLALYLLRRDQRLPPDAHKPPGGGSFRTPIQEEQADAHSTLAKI", "assay": "flow cytometry, whole cell binding to human OX40-expressing Jurkat cells, Geo MFI"}}, "data": [{"substance": "ATOR-1015 analog (reference anti-OX40/CTLA4 bispecific antibody synthesized in-house)", "values": [{"measurement": "EC50", "setting": "[1]", "value": 37.4, "unit": "nM"}, {"measurement": "EC50", "setting": "[2]", "value": 10.3, "unit": "nM"}]}]}
